# Measurements taken from US20180172701A1 (published 2018).
# B1: CA185_01979 mouse IgG1 (antibody, V domains shown)
# VH: EVHLVESGPGLVKPSQSLSLTCSVTGYSITNSYWDWIRKFPGNKMEWMGYINYSGSTGYNPSLKSRISISRDTSNNQFFLQLNSITTEDTATYYCARGTYGYNAYHFDYWGRGVMVTVSS
# VL: DIQMTQSPASLSASLEEIVTITCQASQDIGNWLSWYQQKPGKSPHLLIYGTTSLADGVPSRFSGSRSGTQYSLKISGLQVADIGIYVCLQAYSTPFTFGSGTKLEIKR
# notes: also called CA185_01979.0; VR0001842
# B2: CA185_01979 mFab (no hinge) (Fab, V domains shown)
# VH: B1 VH
# VL: B1 VL
# notes: also called CA185_01979 Fab
# Assays:
# [1] = target: T1, human TNFα without compound (apo) (human, UniProt P01375 77-233); experiment: SPR BIAcore T200; IgG captured on anti-mouse Fc; apo TNFα 50 nM injected
# T1 construct: In-house human TNFα; No compound, DMSO only; also called apo human TNFα; hTNF
# [2] = target: T2, human TNFα in complex with compound (1) (human, UniProt P01375 77-233); experiment: SPR BIAcore T200; IgG captured on anti-mouse Fc
# T2 construct: also called human TNFα +compound (1); TNFα-compound (1) complex
# [3] = target: T3, human TNFα in complex with compound (2) (human, UniProt P01375 77-233); experiment: SPR BIAcore T200; IgG captured on anti-mouse Fc
# T3 construct: also called human TNFα +compound (2)
# [4] = target: T2, human TNFα in complex with compound (1); experiment: SPR BIAcore T200; IgG captured on anti-mouse Fc; TNFα 50 nM + 2 µM compound injected
# [5] = target: T3, human TNFα in complex with compound (2); experiment: as above
# [6] = target: T2, human TNFα in complex with compound (1); experiment: size exclusion chromatography (HPLC), molar excess of Fab
# T3 sequence (P01375 77-233 limits assumed, one chain of several): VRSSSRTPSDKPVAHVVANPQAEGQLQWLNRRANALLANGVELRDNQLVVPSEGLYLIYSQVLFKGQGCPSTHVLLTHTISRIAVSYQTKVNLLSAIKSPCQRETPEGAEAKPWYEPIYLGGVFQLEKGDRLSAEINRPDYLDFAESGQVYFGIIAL
# T1 sequence (P01375 77-233 limits assumed): as the sequence (P01375 77-233 limits assumed, one chain of several) above
# T2 sequence (P01375 77-233 limits assumed, one chain of several): as above
Binder,Kd [1],koff [1],kon [1],log selective binding for compound-distorted against apo human TNFα [2],log selective binding for compound-distorted against apo human TNFα [3],Kd [4],koff [4],kon [4],Kd [5],koff [5],kon [5],stoichiometry (Fab : TNFα trimer) [6]
B1,6.7 nM,0.00071 s⁻¹,110000 M⁻¹ s⁻¹,> 2 log,> 2 log,0.034 nM,1.6e-05 s⁻¹,470000 M⁻¹ s⁻¹,0.058 nM,3.3e-05 s⁻¹,570000 M⁻¹ s⁻¹,–
B2,–,–,–,–,–,–,–,–,–,–,–,1 Fab per TNFα trimer
